From US20040043420A1, “Method of identifying conformation-sensitive binding peptides and uses thereof” (priority 2003, published 2004)
No end group written: not given here.

Legend:
ER α [1] = molecular target: T1, ER α (UniProt P03372 1-595, limits assumed); experiment: phage isolated on ERα-ERE; Buffer
T1 construct: also called estrogen receptor α; ERα-ERE
T1 sequence (looked up): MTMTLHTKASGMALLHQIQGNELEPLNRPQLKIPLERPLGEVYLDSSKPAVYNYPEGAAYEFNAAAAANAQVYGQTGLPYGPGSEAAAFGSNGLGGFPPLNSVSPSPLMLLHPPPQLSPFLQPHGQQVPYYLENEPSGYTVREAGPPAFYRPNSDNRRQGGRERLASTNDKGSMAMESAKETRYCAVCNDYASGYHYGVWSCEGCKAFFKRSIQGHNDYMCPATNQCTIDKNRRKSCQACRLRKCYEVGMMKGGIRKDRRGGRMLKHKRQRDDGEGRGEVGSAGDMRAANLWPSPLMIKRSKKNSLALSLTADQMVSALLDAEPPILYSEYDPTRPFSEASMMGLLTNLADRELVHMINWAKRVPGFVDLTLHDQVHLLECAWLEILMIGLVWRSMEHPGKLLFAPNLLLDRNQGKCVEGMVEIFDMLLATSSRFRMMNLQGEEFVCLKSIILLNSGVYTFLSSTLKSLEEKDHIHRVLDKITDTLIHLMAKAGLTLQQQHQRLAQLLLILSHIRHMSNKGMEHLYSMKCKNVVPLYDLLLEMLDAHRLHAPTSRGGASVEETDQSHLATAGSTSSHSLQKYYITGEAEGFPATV

[2] = molecular target: T2, estrogen receptor (ER) α as a carboxy-terminal fusion to the Gal4-activation domain (yeast, UniProt P03372 1-595, limits assumed); experiment: cell-based or functional assay; also: test concentration or dose not given here
T2 sequence (looked up): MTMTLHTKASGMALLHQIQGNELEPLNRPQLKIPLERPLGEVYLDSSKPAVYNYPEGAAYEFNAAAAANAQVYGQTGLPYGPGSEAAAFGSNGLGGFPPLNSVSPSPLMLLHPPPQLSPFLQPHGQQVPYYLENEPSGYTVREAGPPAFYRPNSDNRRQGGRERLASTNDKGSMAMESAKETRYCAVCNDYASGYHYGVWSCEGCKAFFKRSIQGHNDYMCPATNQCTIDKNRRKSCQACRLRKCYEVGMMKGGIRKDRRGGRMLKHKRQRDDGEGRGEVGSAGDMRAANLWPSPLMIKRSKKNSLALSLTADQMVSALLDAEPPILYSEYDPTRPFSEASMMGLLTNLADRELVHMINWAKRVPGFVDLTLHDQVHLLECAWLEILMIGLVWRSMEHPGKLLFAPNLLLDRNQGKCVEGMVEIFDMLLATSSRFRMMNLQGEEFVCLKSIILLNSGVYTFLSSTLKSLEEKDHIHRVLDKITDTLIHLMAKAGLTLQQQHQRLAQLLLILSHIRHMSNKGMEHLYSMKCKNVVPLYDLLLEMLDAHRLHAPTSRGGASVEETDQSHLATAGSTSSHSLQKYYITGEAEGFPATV

ER α [3] = molecular target: T1, ER α; experiment: phage isolated on ERα on plastic; ICI 182,780
[4] = molecular target: T3, Gal4 transcriptional activation domain (AD) fused in frame with AR (yeast, UniProt P10275 1-920, limits assumed); experiment: cell-based or functional assay
T3 sequence (looked up): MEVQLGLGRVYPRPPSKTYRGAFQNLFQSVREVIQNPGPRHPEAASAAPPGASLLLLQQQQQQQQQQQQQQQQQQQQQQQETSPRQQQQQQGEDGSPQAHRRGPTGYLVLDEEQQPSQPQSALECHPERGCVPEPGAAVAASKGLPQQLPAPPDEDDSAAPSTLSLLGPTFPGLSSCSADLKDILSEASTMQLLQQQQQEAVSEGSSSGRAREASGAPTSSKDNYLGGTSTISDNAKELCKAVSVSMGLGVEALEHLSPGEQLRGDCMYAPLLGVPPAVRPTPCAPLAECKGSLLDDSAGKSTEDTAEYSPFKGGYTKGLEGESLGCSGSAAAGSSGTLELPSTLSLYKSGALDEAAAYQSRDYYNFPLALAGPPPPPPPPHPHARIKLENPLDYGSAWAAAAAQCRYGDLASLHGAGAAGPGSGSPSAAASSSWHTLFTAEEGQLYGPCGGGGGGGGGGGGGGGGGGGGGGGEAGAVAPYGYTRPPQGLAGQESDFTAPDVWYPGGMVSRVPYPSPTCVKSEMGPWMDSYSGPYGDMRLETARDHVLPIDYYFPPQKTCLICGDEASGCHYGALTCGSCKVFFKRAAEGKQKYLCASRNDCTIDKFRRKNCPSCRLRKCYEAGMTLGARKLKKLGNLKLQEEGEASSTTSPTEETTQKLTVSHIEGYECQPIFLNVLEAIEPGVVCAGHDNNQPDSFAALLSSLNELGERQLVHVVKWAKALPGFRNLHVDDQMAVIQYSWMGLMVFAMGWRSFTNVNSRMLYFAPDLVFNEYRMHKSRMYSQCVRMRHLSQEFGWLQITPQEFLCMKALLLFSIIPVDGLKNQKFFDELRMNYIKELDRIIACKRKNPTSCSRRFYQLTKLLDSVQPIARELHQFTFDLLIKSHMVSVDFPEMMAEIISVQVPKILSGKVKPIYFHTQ

[5] = molecular target: T3, Gal4 transcriptional activation domain …; experiment: cell-based or functional assay; remark: listed apart in the source

B1: 5B (peptide)
peptide: SSRPTAEWFRENLSR
binding result (ER α [1]): binds

B2: 6B (peptide)
peptide: SRWWDTSWWLEELSR
binding result (ER α [1]): binds

B3: B5H10 (peptide)
chain: MKLLSSIEQACDICRLKKLKCSKEKPKCAKCLKNNWECRYSPKTKRSPLTRAHLTEVESRLERLEQLFLLIFPREDLDMILKMDSLQDIKALLTGLFVQDNVNKDAVTDRLASVETDMPLTLRQHRISATSSSEESSNKGQRQLTVSEFSPPSSLLALLLGGKSLEPLPIRYKNVKRQFTSNSRGSVDLQPS
Fold Induction (ligand-induced β-galactosidase, two-hybrid) [2]: 4.5 fold

B4: B1A1 (peptide)
chain: MKLLSSIEQACDICRLKKLKCSKEKPKCAKCLKNNWECRYSPKTKRSPLTRAHLTEVESRLERLEQLFLLIFPREDLDMILKMDSLQDIKALLTGLFVQDNVNKDAVTDRLASVETDMPLTLRQHRISATSSSEESSNKGQRQLTVSEFCPVGLLVHLLMQ
Fold Induction (ligand-induced β-galactosidase, two-hybrid) [2]: 11 fold

B5: B1G8 (peptide)
chain: MKLLSSIEQACDICRLKKLKCSKEKPKCAKCLKNNWECRYSPKTKRSPLTRAHLTEVESRLERLEQLFLLIFPREDLDMILKMDSLQDIKALLTGLFVQDNVNKDAVTDRLASVETDMPLTLRQHRISATSSSEESSNKGQRQLTVSEFTSVSRLVTLLLQ
Fold Induction (ligand-induced β-galactosidase, two-hybrid) [2]: 6 fold

B6: 7PI (peptide)
peptide: SSGKTREHYREGTSR
binding result (ER α [3]): binds

B7: 7B (peptide)
peptide: SRSYHGEWGVWTLSR
binding result (ER α [1]): binds

B8: 9B (peptide)
peptide: SRNWDWAALELLPYPHPSR
binding result (ER α [1]): binds

B9: B22F6 (peptide)
chain: MKLLSSIEQACDICRLKKLKCSKEKPKCAKCLKNNWECRYSPKTKRSPLTRAHLTEVESRLERLEQLFLLIFPREDLDMILKMDSLQDIKALLTGLFVQDNVNKDAVTDRLASVETDMPLTLRQHRISATSSSEESSNKGQRQLTVSEFLSGLEMEVVLWHYGRLDLQPS
Fold induction (yeast two-hybrid) [4]: 10 fold | β-galactosidase activity (yeast two-hybrid), CPA [5]: 1.23 | β-galactosidase activity (yeast two-hybrid), DHT [5]: 7.85 | β-galactosidase activity (yeast two-hybrid), MPA [5]: 4.56 | β-galactosidase activity (yeast two-hybrid), No Lig [5]: 0.794 | β-galactosidase activity (yeast two-hybrid), RU [5]: 1.2 | β-galactosidase activity (yeast two-hybrid), Test [5]: 7.77

B10: B3E2 (peptide)
chain: MKLLSSIEQACDICRLKKLKCSKEKPKCAKCLKNNWECRYSPKTKRSPLTRAHLTEVESRLERLEQLFLLIFPREDLDMILKMDSLQDIKALLTGLFVQDNVNKDAVTDRLASVETDMPLTLRQHRISATSSSEESSNKGQRQLTVSEFGGSVLLRELLCCYDALEPTTTR
Fold Induction (ligand-induced β-galactosidase, two-hybrid) [2]: 3.5 fold

B11: 4PI (peptide)
peptide: SSRALALFPVGMESR
binding result (ER α [3]): binds

B12: B5A2 (peptide)
chain: MKLLSSIEQACDICRLKKLKCSKEKPKCAKCLKNNWECRYSPKTKRSPLTRAHLTEVESRLERLEQLFLLIFPREDLDMILKMDSLQDIKALLTGLFVQDNVNKDAVTDRLASVETDMPLTLRQHRISATSSSEESSNKGQRQLTVSEFGCSAILRYLLRSPRDLDLQPS
Fold Induction (ligand-induced β-galactosidase, two-hybrid) [2]: 3 fold

B13: B6C4 (peptide)
chain: MKLLSSIEQACDICRLKKLKCSKEKPKCAKCLKNNWECRYSPKTKRSPLTRAHLTEVESRLERLEQLFLLIFPREDLDMILKMDSLQDIKALLTGLFVQDNVNKDAVTDRLASVETDMPLTLRQHRISATSSSEESSNKGQRQLTVSEFDRSSILVSLLSMVETLDLQPS
Fold Induction (ligand-induced β-galactosidase, two-hybrid) [2]: 2.5 fold

B14: 1PI (peptide)
peptide: SSSTPGWWEWDWASR
binding result (ER α [3]): binds

B15: B6A1 (peptide)
chain: MKLLSSIEQACDICRLKKLKCSKEKPKCAKCLKNNWECRYSPKTKRSPLTRAHLTEVESRLERLEQLFLLIFPREDLDMILKMDSLQDIKALLTGLFVQDNVNKDAVTDRLASVETDMPLTLRQHRISATSSSEESSNKGQRQLTVSEFTGSRLLLKLLRFPDSSTCSQA
Fold Induction (ligand-induced β-galactosidase, two-hybrid) [2]: 3.5 fold

B16: 3PI (peptide)
peptide: SSRTAEDYCFFADDYWCSR
notes: also called 16E
binding result (ER α [3]): binds

B17: 3B (peptide)
peptide: SSRPDAAFFGAKLSR
binding result (ER α [1]): binds

B18: B8A10 (peptide)
chain: MKLLSSIEQACDICRLKKLKCSKEKPKCAKCLKNNWECRYSPKTKRSPLTRAHLTEVESRLERLEQLFLLIFPREDLDMILKMDSLQDIKALLTGLFVQDNVNKDAVTDRLASVETDMPLTLRQHRISATSSSEESSNKGQRQLTVSEFVNWDAVVPWSELVALLDLQPS
Fold induction (yeast two-hybrid) [4]: 1 fold | β-galactosidase activity (yeast two-hybrid), CPA [5]: 0.395 | β-galactosidase activity (yeast two-hybrid), DHT [5]: 0.616 | β-galactosidase activity (yeast two-hybrid), No Lig [5]: 0.875 | β-galactosidase activity (yeast two-hybrid), RU [5]: 0.4

B19: 10B (peptide)
peptide: SSDWCFGWGGWCASEAVSR
modifications: not fully specified; cysteine pairing not given here
binding result (ER α [1]): binds

B20: 4B (peptide)
peptide: SSRPSPSFWEKQLSR
binding result (ER α [1]): binds

B21: 5PI (peptide)
peptide: SSDCESLTSYPHLKALCSR
binding result (ER α [3]): binds

B22: B18C4 (peptide)
chain: MKLLSSIEQACDICRLKKLKCSKEKPKCAKCLKNNWECRYSPKTKRSPLTRAHLTEVESRLERLEQLFLLIFPREDLDMILKMDSLQDIKALLTGLFVQDNVNKDAVTDRLASVETDMPLTLRQHRISATSSSEESSNKGQRQLTVSEFDSPWVWFGGEPGLNLLDLQPS
Fold induction (yeast two-hybrid) [4]: 1 fold | β-galactosidase activity (yeast two-hybrid), CPA [5]: 1.53 | β-galactosidase activity (yeast two-hybrid), DHT [5]: 1.43 | β-galactosidase activity (yeast two-hybrid), MPA [5]: 1.44 | β-galactosidase activity (yeast two-hybrid), No Lig [5]: 1.12 | β-galactosidase activity (yeast two-hybrid), RU [5]: 1.5 | β-galactosidase activity (yeast two-hybrid), Test [5]: 0.969

B23: 1B (peptide)
peptide: SSRIADLFWRLEPSR
binding result (ER α [1]): binds

B24: 6PI (peptide)
peptide: SSTATALRDRLAYSR
binding result (ER α [3]): binds

B25: 2PI (peptide)
peptide: SSYWDGSWRRKETCVSCSR
binding result (ER α [3]): binds
